Results published in the supplement of paper PMC9112550, “Optimization of the antimicrobial peptide Bac7 by deep mutational scanning” (BMC Biology, 2022).

Test system: Escherichia coli TOP10
Experiment: shrunken log2 fold change of peptide-encoding DNA abundance (4.5 h post-induction vs induction); higher = less antimicrobial activity (less host growth inhibition)
Settings: time post-induction: 4.5 h; library: site-saturation at positions 5, 18, 19, 20
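Further: peptides expressed intracellularly from a pBAD plasmid library in pooled LB shake-flask culture, induced with 0.3% L-arabinose, DNA abundance read by NGS, three biological replicates, DESeq2 with apeglm shrinkage.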

Sequence | shrunken log2 fold change
RRIRNRPPRLPRPRPRPTMTPRP | 0.149
RRIRNRPPRLPRPRPRPTNNPRP | -0.545
RRIRNRPPRLPRPRPRPTPKPRP | 0.222
RRIRNRPPRLPRPRPRPTPVPRP | 0.425
RRIRNRPPRLPRPRPRPTPWPRP | 0.161
RRIRNRPPRLPRPRPRPTQYPRP | 0.095
RRIRNRPPRLPRPRPRPTRGPRP | 0.725
RRIRNRPPRLPRPRPRPTSAPRP | 0.163
RRIRNRPPRLPRPRPRPTSEPRP | 0.194
RRIRNRPPRLPRPRPRPTTCPRP | -0.275
RRIRNRPPRLPRPRPRPTTPPRP | 0.152
RRIRNRPPRLPRPRPRPTTSPRP | -0.292
RRIRNRPPRLPRPRPRPTTWPRP | -0.246
RRIRNRPPRLPRPRPRPTVDPRP | 0.0566
RRIRNRPPRLPRPRPRPTWEPRP | 0.102
RRIRNRPPRLPRPRPRPTYHPRP | -0.526
RRIRNRPPRLPRPRPRPTYKPRP | -0.196
RRIRNRPPRLPRPRPRPTYNPRP | -0.692
RRIRNRPPRLPRPRPRPVCCPRP | -0.146
RRIRNRPPRLPRPRPRPVCFPRP | -0.162
RRIRNRPPRLPRPRPRPVCTPRP | -0.157
RRIRNRPPRLPRPRPRPVCWPRP | 0.469
RRIRNRPPRLPRPRPRPVDEPRP | 0.0158
RRIRNRPPRLPRPRPRPVDKPRP | 0.0215
RRIRNRPPRLPRPRPRPVDQPRP | -0.213

Sequence | shrunken log2 fold change
RRIRNRPPRLPRPRPRPVDWPRP | 0.218
RRIRNRPPRLPRPRPRPVFCPRP | 0.36
RRIRNRPPRLPRPRPRPVFKPRP | -0.183
RRIRNRPPRLPRPRPRPVFLPRP | -0.215
RRIRNRPPRLPRPRPRPVGEPRP | 0.112
RRIRNRPPRLPRPRPRPVGHPRP | -0.128
RRIRNRPPRLPRPRPRPVINPRP | -0.512
RRIRNRPPRLPRPRPRPVKCPRP | 0.0182
RRIRNRPPRLPRPRPRPVLHPRP | -0.00264
RRIRNRPPRLPRPRPRPVLMPRP | -0.14
RRIRNRPPRLPRPRPRPVMGPRP | 0.147
RRIRNRPPRLPRPRPRPVNIPRP | -0.435
RRIRNRPPRLPRPRPRPVQVPRP | -0.317
RRIRNRPPRLPRPRPRPVRYPRP | -0.0196
RRIRNRPPRLPRPRPRPVSHPRP | -0.0709
RRIRNRPPRLPRPRPRPVSIPRP | -0.0773
RRIRNRPPRLPRPRPRPVSMPRP | -0.0312
RRIRNRPPRLPRPRPRPVWFPRP | -0.113
RRIRNRPPRLPRPRPRPVWWPRP | 0.259
RRIRNRPPRLPRPRPRPWCYPRP | -0.428
RRIRNRPPRLPRPRPRPWFIPRP | -0.306
RRIRNRPPRLPRPRPRPWFLPRP | -0.0768
RRIRNRPPRLPRPRPRPWFVPRP | -0.429
RRIRNRPPRLPRPRPRPWGEPRP | 0.157
RRIRNRPPRLPRPRPRPWGTPRP | 0.0962

Sequence | shrunken log2 fold change
RRIRNRPPRLPRPRPRPWHAPRP | -0.0713
RRIRNRPPRLPRPRPRPWHGPRP | -0.153
RRIRNRPPRLPRPRPRPWHYPRP | -0.25
RRIRNRPPRLPRPRPRPWIMPRP | -1.05
RRIRNRPPRLPRPRPRPWLFPRP | 0.0966
RRIRNRPPRLPRPRPRPWLSPRP | 0.0232
RRIRNRPPRLPRPRPRPWMIPRP | -0.252
RRIRNRPPRLPRPRPRPWNEPRP | -0.233
RRIRNRPPRLPRPRPRPWNNPRP | -0.15
RRIRNRPPRLPRPRPRPWPNPRP | -0.063
RRIRNRPPRLPRPRPRPWQEPRP | -0.0629
RRIRNRPPRLPRPRPRPWQWPRP | 0.144
RRIRNRPPRLPRPRPRPWRDPRP | -0.342
RRIRNRPPRLPRPRPRPWRWPRP | 0.0867
RRIRNRPPRLPRPRPRPWSRPRP | 0.14
RRIRNRPPRLPRPRPRPWSTPRP | -0.0852
RRIRNRPPRLPRPRPRPWVHPRP | -0.288
RRIRNRPPRLPRPRPRPWVSPRP | 0.069
RRIRNRPPRLPRPRPRPWWHPRP | -0.104
RRIRNRPPRLPRPRPRPWWTPRP | -0.129
RRIRNRPPRLPRPRPRPWYEPRP | -0.0232
RRIRNRPPRLPRPRPRPWYFPRP | -0.222
RRIRNRPPRLPRPRPRPWYLPRP | -0.0197
RRIRNRPPRLPRPRPRPYAWPRP | -0.141
RRIRNRPPRLPRPRPRPYFIPRP | -0.645

Sequence | shrunken log2 fold change
RRIRNRPPRLPRPRPRPYGEPRP | -0.16
RRIRNRPPRLPRPRPRPYHVPRP | -0.116
RRIRNRPPRLPRPRPRPYICPRP | -0.0343
RRIRNRPPRLPRPRPRPYIFPRP | -0.327
RRIRNRPPRLPRPRPRPYKPPRP | -0.0731
RRIRNRPPRLPRPRPRPYLGPRP | -0.21
RRIRNRPPRLPRPRPRPYLIPRP | -0.0464
RRIRNRPPRLPRPRPRPYLRPRP | -0.0191
RRIRNRPPRLPRPRPRPYLSPRP | -0.169
RRIRNRPPRLPRPRPRPYLWPRP | -0.23
RRIRNRPPRLPRPRPRPYNDPRP | -0.581
RRIRNRPPRLPRPRPRPYPTPRP | -0.074
RRIRNRPPRLPRPRPRPYQIPRP | -0.0282
RRIRNRPPRLPRPRPRPYQLPRP | 0.327
RRIRNRPPRLPRPRPRPYQMPRP | -0.246
RRIRNRPPRLPRPRPRPYQNPRP | 0.0156
RRIRNRPPRLPRPRPRPYQTPRP | -0.00141
RRIRNRPPRLPRPRPRPYRIPRP | -0.115
RRIRNRPPRLPRPRPRPYRYPRP | 0.0342
RRIRNRPPRLPRPRPRPYSWPRP | -0.814
RRIRNRPPRLPRPRPRPYTEPRP | -0.695
RRIRNRPPRLPRPRPRPYVPPRP | -0.0142
RRIRNRPPRLPRPRPRPYWHPRP | -0.0277
RRIRNRPPRLPRPRPRPYWPPRP | -0.199
RRIRPRPPRLPRPRPRPAFGPRP | 0.45

Sequence | shrunken log2 fold change
RRIRPRPPRLPRPRPRPAFLPRP | -0.0283
RRIRPRPPRLPRPRPRPAGDPRP | 0.387
RRIRPRPPRLPRPRPRPAGFPRP | 0.301
RRIRPRPPRLPRPRPRPAGWPRP | 0.765
RRIRPRPPRLPRPRPRPAHTPRP | -0.0311
RRIRPRPPRLPRPRPRPAKDPRP | -0.111
RRIRPRPPRLPRPRPRPAKMPRP | 0.0216
RRIRPRPPRLPRPRPRPALEPRP | 0.313
RRIRPRPPRLPRPRPRPANVPRP | -0.122
RRIRPRPPRLPRPRPRPANYPRP | 0.0679
RRIRPRPPRLPRPRPRPAPDPRP | 0.309
RRIRPRPPRLPRPRPRPAQRPRP | 0.104
RRIRPRPPRLPRPRPRPASFPRP | 0.0681
RRIRPRPPRLPRPRPRPASLPRP | 0.187
RRIRPRPPRLPRPRPRPASYPRP | -0.212
RRIRPRPPRLPRPRPRPATPPRP | 0.216
RRIRPRPPRLPRPRPRPATRPRP | 0.442
RRIRPRPPRLPRPRPRPATYPRP | -0.46
RRIRPRPPRLPRPRPRPAVEPRP | 0.014
RRIRPRPPRLPRPRPRPAVPPRP | 0.1
RRIRPRPPRLPRPRPRPAYFPRP | -0.16
RRIRPRPPRLPRPRPRPAYGPRP | 0.144
RRIRPRPPRLPRPRPRPCDRPRP | 0.0787
RRIRPRPPRLPRPRPRPCFAPRP | 0.0019
RRIRPRPPRLPRPRPRPCHLPRP | -0.148

Sequence | shrunken log2 fold change
RRIRPRPPRLPRPRPRPCIFPRP | -0.359
RRIRPRPPRLPRPRPRPCIPPRP | -0.556
RRIRPRPPRLPRPRPRPCIVPRP | -0.199
RRIRPRPPRLPRPRPRPCKDPRP | -0.374
RRIRPRPPRLPRPRPRPCLMPRP | -0.393
RRIRPRPPRLPRPRPRPCMEPRP | -0.106
RRIRPRPPRLPRPRPRPCRGPRP | -0.322
RRIRPRPPRLPRPRPRPCSFPRP | -0.109
RRIRPRPPRLPRPRPRPCSRPRP | 0.0759
RRIRPRPPRLPRPRPRPCTRPRP | 2.07
RRIRPRPPRLPRPRPRPCVKPRP | -0.139
RRIRPRPPRLPRPRPRPCVSPRP | -0.0858
RRIRPRPPRLPRPRPRPCYFPRP | -0.0997
RRIRPRPPRLPRPRPRPCYQPRP | -0.565
RRIRPRPPRLPRPRPRPCYWPRP | -0.294
RRIRPRPPRLPRPRPRPDAPPRP | 0.227
RRIRPRPPRLPRPRPRPDAVPRP | 0.325
RRIRPRPPRLPRPRPRPDCCPRP | -0.0125
RRIRPRPPRLPRPRPRPDCLPRP | 0.0136
RRIRPRPPRLPRPRPRPDDFPRP | -0.371
RRIRPRPPRLPRPRPRPDDVPRP | -0.0212
RRIRPRPPRLPRPRPRPDFMPRP | -0.309
RRIRPRPPRLPRPRPRPDHAPRP | 0.218
RRIRPRPPRLPRPRPRPDIYPRP | -0.0306
RRIRPRPPRLPRPRPRPDKLPRP | 0.038
